Usually Kd stands for the free concentration of one partner at which half of the binding sites on the other are occupied at equilibrium, for simple one-to-one binding. For orientation: Ki means the dissociation constant of the complex between target and ligand, obtained from inhibition or displacement.

These results are taken from patent US20030082683A1.

In experiment [1] the target is rSK2 small conductance, calcium-activated potassium channel (rat), P70604.
The target of experiment [2] is T1, hIK1 intermediate conductance, calcium-activated potassium channel (human), O15554.
T1 chain: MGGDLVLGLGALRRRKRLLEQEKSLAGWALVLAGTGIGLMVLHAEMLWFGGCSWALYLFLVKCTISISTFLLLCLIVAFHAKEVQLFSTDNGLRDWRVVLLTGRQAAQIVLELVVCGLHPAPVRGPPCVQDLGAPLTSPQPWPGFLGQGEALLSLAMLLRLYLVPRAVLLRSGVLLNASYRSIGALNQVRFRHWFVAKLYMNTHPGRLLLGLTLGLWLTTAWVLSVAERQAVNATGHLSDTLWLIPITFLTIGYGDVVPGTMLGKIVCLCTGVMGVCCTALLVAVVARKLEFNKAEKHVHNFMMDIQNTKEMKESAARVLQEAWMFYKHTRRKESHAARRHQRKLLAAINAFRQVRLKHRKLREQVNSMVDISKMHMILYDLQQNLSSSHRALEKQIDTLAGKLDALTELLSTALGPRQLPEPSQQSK
Put plainly: block of macroscopic hIK1 current, patch clamp on macropatches from Xenopus oocytes. Background: In patch-clamp work, channel activity is measured electrically.

Sequence of rSK2 small conductance, calcium-activated potassium channel (rat), P70604 (P70604 whole entry): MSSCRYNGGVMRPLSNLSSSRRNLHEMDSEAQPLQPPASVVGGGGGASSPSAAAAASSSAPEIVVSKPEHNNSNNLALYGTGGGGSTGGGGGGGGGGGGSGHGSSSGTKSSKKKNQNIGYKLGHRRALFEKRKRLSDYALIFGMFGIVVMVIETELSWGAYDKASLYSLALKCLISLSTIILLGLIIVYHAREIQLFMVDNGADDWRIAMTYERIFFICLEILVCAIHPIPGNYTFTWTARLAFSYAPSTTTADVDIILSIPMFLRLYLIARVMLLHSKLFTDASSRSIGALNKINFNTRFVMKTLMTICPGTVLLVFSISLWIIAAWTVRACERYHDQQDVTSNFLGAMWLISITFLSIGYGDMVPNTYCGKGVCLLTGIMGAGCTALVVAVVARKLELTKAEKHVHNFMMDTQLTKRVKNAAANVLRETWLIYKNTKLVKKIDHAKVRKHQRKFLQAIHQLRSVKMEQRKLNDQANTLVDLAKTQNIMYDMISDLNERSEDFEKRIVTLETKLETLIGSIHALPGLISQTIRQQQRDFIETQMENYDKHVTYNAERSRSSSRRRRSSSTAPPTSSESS

B1: apamin, P01500 28-45 (peptide)
peptide: CNCKAPETALCARRCQQH
modifications: not checked
Turning to B1, the Kd in experiment [1] is 0.063 nM.

B2: charybdotoxin, P13487 23-59 (peptide)
peptide: QFTNVSCTTSKECWSVCQRLHNTSRGKCMNKKCRCYS
modifications: not checked
B2: the Ki in experiment [2] was determined as 2.5 nM.
